The text below walks through data of PMC10448276, “Mechanisms controlling membrane recruitment and activation of the autoinhibited SHIP1 inositol 5-phosphatase” (The Journal of Biological Chemistry, 2023).

B1: pY-ITIM, phosphotyrosine peptide from the immunoreceptor tyrosine inhibitory motif (ITIM) of the FcγRIIB receptor (peptide)
peptide: CKTEAENTIT[pY]SLIK
modifications: also: N-terminal Cys coupled to maleimide headgroup of MCC-PE lipid in membrane-conjugated experiments
notes: cysteine added to the N terminus for coupling to the maleimide lipid; the tyrosine is phosphorylated; Used in solution (100 μM) or conjugated to supported lipid bilayers with 2% MCC-PE; also called pY peptide; ITIM peptide; source: synthetic peptide (Elim Biopharmaceuticals)
B2: mNG-SHIP1 (FL, 1–1188 aa), full-length human Src homology 2 domain–containing inositol 5-phosphatase 1 (enzyme, UniProt Q92835-2 1-1188, looked up)
chain: MVPCWNHGNITRSKAEELLSRTGKDGSFLVRASESISRAYALCVLYRNCVYTYRILPNEDDKFTVQASEGVSMRFFTKLDQLIEFYKKENMGLVTHLQYPVPLEEEDTGDDPEEDTESVVSPPELPPRNIPLTASSCEAKEVPFSNENPRATETSRPSLSETLFQRLQSMDTSGLPEEHLKAIQDYLSTQLAQDSEFVKTGSSSLPHLKKLTTLLCKELYGEVIRTLPSLESLQRLFDQQLSPGLRPRPQVPGEANPINMVSKLSQLTSLLSSIEDKVKALLHEGPESPHRPSLIPPVTFEVKAESLGIPQKMQLKVDVESGKLIIKKSKDGSEDKFYSHKKILQLIKSQKFLNKLVILVETEKEKILRKEYVFADSKKREGFCQLLQQMKNKHSEQPEPDMITIFIGTWNMGNAPPPKKITSWFLSKGQGKTRDDSADYIPHDIYVIGTQEDPLSEKEWLEILKHSLQEITSVTFKTVAIHTLWNIRIVVLAKPEHENRISHICTDNVKTGIANTLGNKGAVGVSFMFNGTSLGFVNSHLTSGSEKKLRRNQNYMNILRFLALGDKKLSPFNITHRFTHLFWFGDLNYRVDLPTWEAETIIQKIKQQQYADLLSHDQLLTERREQKVFLHFEEEEITFAPTYRFERLTRDKYAYTKQKATGMKYNLPSWCDRVLWKSYPLVHVVCQSYGSTSDIMTSDHSPVFATFEAGVTSQFVSKNGPGTVDSQGQIEFLRCYATLKTKSQTKFYLEFHSSCLESFVKSQEGENEEGSEGELVVKFGETLPKLKPIISDPEYLLDQHILISIKSSDSDESYGEGCIALRLEATETQLPIYTPLTHHGELTGHFQGEIKLQTSQGKTREKLYDFVKTERDESSGPKTLKSLTSHDPMKQWEVTSRAPPCSGSSITEIINPNYMGVGPFGPPMPLHVKQTLSPDQQPTAWSYDQPPKDSPLGPCRGESPPTPPGQPPISPKKFLPSTANRGLPPRTQESRPSDLGKNAGDTLPQEDLPLTKPEMFENPLYGSLSSFPKPAPRKDQESPKMPRKEPPPCPEPGILSPSIVLTKAQEADRGEGPGKQVPAPRLRSFTCSSSAEGRAAGGDKSQGKPKTPVSSQAPVPAKRPIKPSRSEINQQTPPTPTPRPPLPVKSPAVLHLQHSKGRDYRDNTELPHHGKHRPEEGPPGPLGRTAMQ

The target in assay [1] is B2. The assay is described as follows: TIRF microscopy on supported lipid bilayers (bulk membrane recruitment); 5 nM mNG-SHIP1 construct in solution; pY-ITIM peptide covalently conjugated to maleimide lipid in the SLB (96% DOPC, 2% PI(3,4,5)P3, 2% MCC-PE); 23 °C. The note with it: both partners purified.
Assay [2] deals with B1. Description: cell-based or functional assay.

Non-standard residues stand in square brackets, D forms with d. No end group written: not given here. pY = N[C@@H](Cc1ccc(OP(=O)(O)O)cc1)C(=O)O

Consider B1, for which the binding result in assay [1] is “binds”.

Regarding B2, the “lipid phosphatase activity of 20 nM FL SHIP1 on SLB (PI(3,4,5)P3 dephosphorylation, Grp1-AF647 sensor, reaction half time) with 100 μM pY-ITIM in solution” value in assay [2] was about 5 fold.
